Results taken from the supplement of paper PMC9112550, “Optimization of the antimicrobial peptide Bac7 by deep mutational scanning” (BMC Biology, 2022).

Test system: Escherichia coli TOP10
Test: shrunken log2 fold change of peptide-encoding DNA abundance (4.5 h post-induction vs induction); higher = less antimicrobial activity (less host growth inhibition)
Conditions: time post-induction: 4.5 h; library: site-saturation at positions 5, 18, 19, 20
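Note: peptides expressed intracellularly from a pBAD plasmid library in pooled LB shake-flask culture, induced with 0.3% L-arabinose, DNA abundance read by NGS, three biological replicates, DESeq2 with apeglm shrinkage.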

Sequence	shrunken log2 fold change
RRIRRRPPRLPRPRPRPENSPRP	0.118
RRIRMRPPRLPRPRPRPIPMPRP	0.414
RRIRWRPPRLPRPRPRPLNMPRP	-0.832
RRIRYRPPRLPRPRPRPDFKPRP	-0.261
RRIRYRPPRLPRPRPRPKQWPRP	0.0575
RRIRNRPPRLPRPRPRPGAPPRP	0.492
RRIRVRPPRLPRPRPRPQKHPRP	-0.247
RRIRIRPPRLPRPRPRPANPPRP	-0.29
RRIRARPPRLPRPRPRPMIWPRP	0.415
RRIRERPPRLPRPRPRPMCEPRP	0.0303
RRIRQRPPRLPRPRPRPYMSPRP	-0.655
RRIRWRPPRLPRPRPRPKSCPRP	0.178
RRIRDRPPRLPRPRPRPGMSPRP	0.0134
RRIRGRPPRLPRPRPRPRHWPRP	0.439
RRIRCRPPRLPRPRPRPYLVPRP	-0.584
RRIRLRPPRLPRPRPRPESFPRP	0.0256
RRIRGRPPRLPRPRPRPCKGPRP	-0.0939
RRIRMRPPRLPRPRPRPFNFPRP	-0.598
RRIRTRPPRLPRPRPRPWRRPRP	0.496
RRIRMRPPRLPRPRPRPVLTPRP	0.27
RRIRCRPPRLPRPRPRPDNFPRP	-0.489
RRIRMRPPRLPRPRPRPNASPRP	0.0546
RRIRWRPPRLPRPRPRPVMFPRP	-0.0114
RRIRFRPPRLPRPRPRPNSNPRP	-0.996
RRIRTRPPRLPRPRPRPQCTPRP	-0.175

Sequence	shrunken log2 fold change
RRIRIRPPRLPRPRPRPRTHPRP	-0.372
RRIRARPPRLPRPRPRPGDGPRP	0.939
RRIRPRPPRLPRPRPRPNVHPRP	-0.44
RRIRHRPPRLPRPRPRPQFDPRP	0.0132
RRIRKRPPRLPRPRPRPCWCPRP	-0.0214
RRIRHRPPRLPRPRPRPHVHPRP	-0.201
RRIRPRPPRLPRPRPRPPFNPRP	-0.126
RRIRKRPPRLPRPRPRPMGCPRP	0.408
RRIRARPPRLPRPRPRPTCEPRP	0.723
RRIRHRPPRLPRPRPRPIAVPRP	-0.219
RRIRRRPPRLPRPRPRPQMYPRP	-0.183
RRIRARPPRLPRPRPRPQWVPRP	0.124
RRIRKRPPRLPRPRPRPNIAPRP	0.262
RRIRKRPPRLPRPRPRPWGNPRP	-0.0638
RRIRWRPPRLPRPRPRPKHEPRP	0.288
RRIRGRPPRLPRPRPRPNLHPRP	0.303
RRIRWRPPRLPRPRPRPELCPRP	0.579
RRIRHRPPRLPRPRPRPYADPRP	-0.00783
RRIRDRPPRLPRPRPRPWYCPRP	-0.137
RRIRARPPRLPRPRPRPNFRPRP	0.376
RRIRPRPPRLPRPRPRPIHCPRP	-0.125
RRIRKRPPRLPRPRPRPELYPRP	0.0137
RRIRVRPPRLPRPRPRPSYQPRP	-0.34
RRIRNRPPRLPRPRPRPLSTPRP	0.0462
RRIRNRPPRLPRPRPRPHLGPRP	-0.317

Sequence	shrunken log2 fold change
RRIRERPPRLPRPRPRPHIWPRP	0.00885
RRIRVRPPRLPRPRPRPAWYPRP	0.0171
RRIRVRPPRLPRPRPRPFPEPRP	-0.24
RRIRMRPPRLPRPRPRPGHYPRP	-0.196
RRIRIRPPRLPRPRPRPAYDPRP	-0.325
RRIRDRPPRLPRPRPRPKVFPRP	0.0612
RRIRVRPPRLPRPRPRPHVLPRP	-0.067
RRIRLRPPRLPRPRPRPKVRPRP	0.316
RRIRKRPPRLPRPRPRPFGFPRP	-0.137
RRIRNRPPRLPRPRPRPWCVPRP	-0.396
RRIRERPPRLPRPRPRPGMDPRP	-0.696
RRIRDRPPRLPRPRPRPECQPRP	-0.00804
RRIRWRPPRLPRPRPRPKMDPRP	0.135
RRIRTRPPRLPRPRPRPHTFPRP	-0.431
RRIRYRPPRLPRPRPRPWRTPRP	-0.298
RRIRKRPPRLPRPRPRPCKCPRP	0.0183
RRIRRRPPRLPRPRPRPVWMPRP	0.561
RRIRERPPRLPRPRPRPVNWPRP	-0.0528
RRIRPRPPRLPRPRPRPEAEPRP	0.979
RRIRERPPRLPRPRPRPKHRPRP	-0.457
RRIRQRPPRLPRPRPRPQEAPRP	0.0238
RRIRERPPRLPRPRPRPQCDPRP	-0.162
RRIRGRPPRLPRPRPRPDANPRP	1.99
RRIRNRPPRLPRPRPRPKQYPRP	-0.426
RRIRLRPPRLPRPRPRPWKLPRP	-0.00968

Sequence	shrunken log2 fold change
RRIRWRPPRLPRPRPRPQICPRP	-0.0447
RRIRKRPPRLPRPRPRPASPPRP	0.122
RRIRSRPPRLPRPRPRPKTMPRP	0.0109
RRIRLRPPRLPRPRPRPDLYPRP	-0.0419
RRIRPRPPRLPRPRPRPTMDPRP	-0.125
RRIRKRPPRLPRPRPRPTWTPRP	0.0915
RRIRWRPPRLPRPRPRPSKLPRP	-0.315
RRIRIRPPRLPRPRPRPLFKPRP	-0.773
RRIRLRPPRLPRPRPRPATYPRP	-0.212
RRIRQRPPRLPRPRPRPMTSPRP	-0.000946
RRIRTRPPRLPRPRPRPQDNPRP	-0.669
RRIRGRPPRLPRPRPRPHWKPRP	0.184
RRIRGRPPRLPRPRPRPMGTPRP	0.48
RRIRGRPPRLPRPRPRPFAPPRP	1
RRIRERPPRLPRPRPRPHVQPRP	-0.434
RRIRSRPPRLPRPRPRPDWDPRP	0.157
RRIRMRPPRLPRPRPRPALQPRP	0.791
RRIRCRPPRLPRPRPRPQCGPRP	-0.609
RRIRVRPPRLPRPRPRPMQNPRP	0.111
RRIRQRPPRLPRPRPRPHRMPRP	-0.373
RRIRTRPPRLPRPRPRPSMDPRP	2.57e-05
RRIRVRPPRLPRPRPRPFRAPRP	-0.0855
RRIRTRPPRLPRPRPRPGVAPRP	0.639
RRIRTRPPRLPRPRPRPDLWPRP	0.27
RRIRCRPPRLPRPRPRPHYYPRP	-1.07

Sequence	shrunken log2 fold change
RRIRLRPPRLPRPRPRPTITPRP	-0.0781
RRIRSRPPRLPRPRPRPLMMPRP	-0.0355
RRIRWRPPRLPRPRPRPASVPRP	0.00924
RRIRNRPPRLPRPRPRPVVFPRP	-0.0743
RRIRVRPPRLPRPRPRPLAVPRP	0.33
RRIRYRPPRLPRPRPRPDWSPRP	-0.522
RRIRERPPRLPRPRPRPRLWPRP	0.0271
RRIRDRPPRLPRPRPRPEHEPRP	0.017
RRIRTRPPRLPRPRPRPSKVPRP	-0.0295
RRIRQRPPRLPRPRPRPFQLPRP	-0.00805
RRIRGRPPRLPRPRPRPEFCPRP	1.23
RRIRFRPPRLPRPRPRPQCRPRP	-0.218
RRIRERPPRLPRPRPRPGVGPRP	0.428
RRIRIRPPRLPRPRPRPPEIPRP	-0.578
RRIRTRPPRLPRPRPRPVKYPRP	0.0856
RRIRVRPPRLPRPRPRPSRGPRP	0.413
RRIRFRPPRLPRPRPRPIYGPRP	-0.289
RRIRDRPPRLPRPRPRPGGIPRP	0.129
RRIRWRPPRLPRPRPRPFESPRP	-0.0622
RRIRVRPPRLPRPRPRPDHDPRP	-0.485
RRIRDRPPRLPRPRPRPGGMPRP	0.0874
RRIRMRPPRLPRPRPRPANYPRP	-0.394
RRIRSRPPRLPRPRPRPCSTPRP	0.129
RRIRPRPPRLPRPRPRPGHPPRP	-0.12
RRIRYRPPRLPRPRPRPFNFPRP	-0.771

Sequence	shrunken log2 fold change
RRIRGRPPRLPRPRPRPNMTPRP	1.63
RRIRGRPPRLPRPRPRPEILPRP	1.22
RRIRGRPPRLPRPRPRPDPCPRP	0.624
RRIRARPPRLPRPRPRPCWQPRP	0.096
RRIRNRPPRLPRPRPRPVIWPRP	-0.112
RRIRTRPPRLPRPRPRPRLMPRP	0.119
RRIRNRPPRLPRPRPRPDAQPRP	-0.173
RRIRWRPPRLPRPRPRPLYAPRP	0.188
RRIRDRPPRLPRPRPRPMRNPRP	0.416
RRIRPRPPRLPRPRPRPQSPPRP	0.0713
RRIRGRPPRLPRPRPRPGELPRP	0.61
RRIRRRPPRLPRPRPRPNIHPRP	0.564
RRIRLRPPRLPRPRPRPVMPPRP	-0.29
RRIRERPPRLPRPRPRPVSQPRP	-0.0404
RRIRTRPPRLPRPRPRPVNEPRP	-0.103
RRIRTRPPRLPRPRPRPQRYPRP	-0.127
RRIRLRPPRLPRPRPRPRRYPRP	-0.00737
RRIRNRPPRLPRPRPRPSESPRP	-0.0302
RRIRYRPPRLPRPRPRPGSNPRP	-0.0401
RRIRDRPPRLPRPRPRPPTTPRP	0.151
RRIRIRPPRLPRPRPRPTHNPRP	-0.145
RRIRERPPRLPRPRPRPDSCPRP	-0.149
RRIRERPPRLPRPRPRPHQAPRP	0.0779
RRIRTRPPRLPRPRPRPEHYPRP	-0.0177
RRIRCRPPRLPRPRPRPRWYPRP	-0.134
